{"source": "patent US12383572B2", "about": "“Administration of an anti-activin-a compound to a subject” (AMGEN INC., priority 2013, dated 2025)", "molecules": {"B1": {"name": "sActRIIB: extracellular domain of human activin type-2B receptor fused to IgG2 Fc; full length SEQ ID NO: 21 (Table 9) (protein, listed as Homo sapiens)", "chain": "ETRWCIYYNANWELERTNQSGLERCEGEQDKRLHCYASWRNSSGTIELVKKGCWLDDFNCYDRQECVATEENPQVYFCCCEGNFCNERFTHLPEAGGPEVTYEPPPTAPTGGGGSVECPPCPAPPVAGPSVFLFPPKPKDTLMISRTPEVTCVVVDVSHEDPEVQFNWYVDGVEVHNAKTKPREEQFNSTFRVVSVLTVVHQDWLNGKEYKCKVSNKGLPAPIEKTISKTKGQPREPQVYTLPPSREEMTKNQVSLTCLVKGFYPSDIAVEWESNGQPENNYKTTPPMLDSDGSFFLYSKLTVDKSRWQQGNVFSCSVMHEALHNHYTQKSLSLSPGK"}}, "key": {"[1]": {"tested_on": "ovarian tumors in inh-KO mice", "experiment": "Ovarian tumor mass by necropsy in female inh-KO mice", "assay_type": "in vivo, mouse", "details": "12-week-old female inh-KO mice, single injection 30 mg/kg SC, necropsy 14 days after", "method": "Inh-KO mice. 12-week-old female and 8-week-old male inh-KO mice with fully established ovarian or testicular tumors received a single injection of PBS or sActRIIB (30 mg/kg, SC). As a control, age-matched wild-type littermates received a single injection of PBS. Ovarian and testicular organ weights were determined by necropsy 14 days after the injection."}, "[2]": {"experiment": "sActRIIB single dose, withdrawal and re-administration in female Inhα KO mice: body weight", "assay_type": "in vivo, mouse", "method": "(§1) Eleven-to-fourteen-week-old female Inhα KO mice with body weight from 19.41 to 26.82 grams were subcutaneously (SC) injected with either 30 mg/kg sActRIIB or PBS. Age-matched WT littermate control mice were injected with PBS and served as baseline controls. The study ended by necropsy 2 weeks after injections. Two cohorts of mice were used in the study. Eleven-to-thirteen-week-old female Inhα KO mice with body weight from 17.7 to 27.4 grams were SC injected with either 30 mg/kg sAcLRIIB or PBS. Age-matched WT littermate control mice were injected with PBS and served as baseline controls. The withdrawal lasted for 8 weeks. At the end of the withdrawal, the sActRIIB treated mice were divided by balanced body weight into 2 groups (Group 3 and Group 4).\n(§2) Group 2 and Group 3 were euthanized to examine the ovarian tumors. Group 4 received another dose of 30 mg/kg sActRIIB and the mice were euthanized together with the WT mice 4 weeks later (total 12 weeks). Mouse body weights were recorded once per week up to 12 weeks. For necropsy, mice were euthanized in a CO2 chamber. Normal ovaries in WT mice and ovarian tumors in Inhα KO mice were collected and weighed. All results were expressed as the mean±standard error of the mean (SEM). Statistical significance of difference between groups was analyzed using Student's 2-tailed t-test on MS Excel 5.0 software. […]"}, "[3]": {"tested_on": "TOV-21G tumors (apoptosis)", "experiment": "Active caspase-3 immunostaining and TUNEL assay on TOV-21G tumor sections", "assay_type": "in vivo, human", "details": "TOV-21G xenograft tumors", "method": "Zinc-formalin fixed paraffin tumor tissue sections of 4 μm in thickness were prepared. The sections were subjected to antigen retrieval by microwave 3 min in Unmask solution (Vector H-3300) followed by incubation in 10 μg/ml Proteinase-K for 20 min and in 1% H2O2 in dH2O for 10 min at room temperature. The sections were further incubated in 0.1% Tween-20 in PBS for 3 min to permeabilize the cell membrane and in goat serum for 30 min to block non-specific binding. The sections were then incubated at room temperature with specific primary antibody for 3 hours followed by incubation in biotinylated or fluorescently labeled secondary antibody. Substrate developed in Vector SG kit (SK-4700) or DAB and nuclear-counterstained in Vector Fast Red (H-3403) or in hematoxylin. The immunostained tissue sections were analyzed and photographed using a Nikon Eclipse 90i microscope equipped with DS-Ril camera. […]\nCell apoptosis in TOV-21G tumors was analyzed by measuring the amounts of fragmented DNA in the tumor sections using the DeadEnd Fluorometric TUNEL System following the manufacturer's recommended protocols (Promega, G3250). The fluorescein-12-dUTP-labeled DNA was visualized by Nikon fluorescence microscopy."}, "VEGF": {"tested_on": "VEGF", "experiment": "Serum VEGF immunoassay in inh-KO mice", "assay_type": "in vivo, mouse", "details": "inh-KO mice with advanced tumors, single dose", "method": "The serum VEGF levels in inh-KO mice were measured by using immunoassay kit (R & D Systems), and the levels of human VEGF and Ang-1 in cell line culture medium were quantified using ELISA kits purchased from Invitrogen (VEGF) and R & D Systems (Ang-1), by following the manufacturers' recommended protocols."}, "[4]": {"experiment": "sActRIIB single dose in female Inhα KO mice: survival", "assay_type": "in vivo, mouse", "method": "as §1, §2"}, "Ang-2 mRNA": {"tested_on": "Ang-2 mRNA", "experiment": "Northern blot of Ang-2 mRNA in inh-KO tumors", "assay_type": "in vivo, mouse", "details": "ovarian and testicular tumors, inh-KO mice", "method": "Total RNA was isolated from individual tissue samples after homogenization in Trizol (Invitrogen). A pool of 10 μg RNA for each group containing equal amounts of total RNA isolated from individual animals was subjected to Northern blot analysis. The northern probes used for βA and Ang-2 were generated by using RT-PCR (Phusion, Biolabs). βA primer set: 5′-CCCTTGCTTTGGCTGAGAGGA-3′ (SEQ ID NO: 294) and 5′-TC ACA GGT CGT CGT AGG TCG-3′ (SEQ ID NO: 295); Ang-2 primer set: 5′-TGT GCC GGG GAG AAG AG (SEQ ID NO: 296) and 5′-TACAGTAGTGGGTTGAGGTTC-3′ (SEQ ID NO: 297). To normalize the expression, northern blot membranes were re-probed with β-actin."}}, "data": [{"molecule": "B1", "values": [{"measurement": "ovarian tumor mass", "setting": "[1]", "value": "regressed rapidly to the sizes seen in the WT control mice"}, {"measurement": "body weight, first 4 weeks after single dose", "setting": "[2]; 30 mg/kg SC single dose", "value": "sustained weight gain in Inhα KO mice that exceeded the level of WT littermate control"}, {"measurement": "body weight after re-administration at week 8 (up to week 12)", "setting": "[2]; second single dose 30 mg/kg", "value": "stimulated further weight gain"}, {"measurement": "active caspase-3 and DNA fragmentation (TUNEL)", "setting": "[3]", "value": "profound increases in active caspase-3 and DNA fragmentation"}, {"measurement": "serum VEGF", "setting": "VEGF", "value": "rapidly lowered the elevated VEGF to WT control levels"}, {"measurement": "survival rate at week 8", "setting": "[4]; single dose 30 mg/kg SC", "value": 94, "unit": "%"}, {"measurement": "survival curves, sActRIIB vs. PBS", "setting": "[4]; single dose, chi-square test", "value": "significantly different"}, {"measurement": "Ang-2 mRNA expression in tumors", "setting": "Ang-2 mRNA", "value": "inhibited its overexpression"}]}]}
